We go through one molecule from PMC5620733, “Aptamer-Based Single-Step Assay by the Fluorescence Enhancement on Electroless Plated Nano Au Substrate”.

The target in the series is thrombin (UniProt P00734;P00734 328-363;364-622). Put plainly: fluorescence decrease on chitosan-coated Au nanostructure (aptamer release); 10 ug/mL thrombin, 15 min; smaller signal change than 15mer, ascribed to retention on chitosan; 20 mM Tris-HCl pH 7.4, 20 mM MgCl2; chitosan-coated (1000 Da) Au nanostructure blocked with 1% BSA; 15 min; temperature not stated.

B1: TBA 21mer (5'-extended) (ssDNA)
DNA: CACTGTGGTTGGTGTGGTTGG
With B1, the binding result was “binds”.
